This data set is described as follows: label from the status in PepcDB records.
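Note: failed if final PepcDB status was selected cloned or expressed and not failed if soluble or beyond.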

For “VGTIDQLVKRVIEGSLSPKERTLLKEDPAYWFLSDENSLEYKYYKLKLAEMQR”, the protein production entry is “not failed”.

“VILSATRPFVCSRAPLGLSESAFMPLNGRTKMITKMPFRLVSLSCLELHRASSFWDIGFCTGSVSIEAKLNFPHLHITAFEIRPEGAELMPVNSRRFGAPGIAYRIGDFMEEDISSLAPPDAVFIGGHGGRLVEMIAKVHSVMTKGGLLVFNSVSEESRHLFLTGIEACGMELLSSIRLTADGNNPIDILQARKKE”: the protein production entry was “failed”.

Regarding “VITVGNYKGGAGKTTNVVLLAYKLAKKGLKVCVLDLDPQSNATKSLLLTKSSLYQDEVVTIEKTLMTGISEKNLDGLEVKIMDNLYLLPSYIDFEDFPKYLYKNTSNQREEDYYLKNIFTPLQGKYDIVLIDVPPMSKAVTRNAVICSDYVLISLQTHERSLSGAESYVEELNKLHNEYDLDLEVVGVLPVIHKNNGSVDQYVMEVAKETFGEDNLFENVVPQMERIKRFDVNGITDKDRHDQKVLNLYDKVSDELLD”, the protein production result was “failed”.

Take “VIVDSVGNVLSDGDTVSITKTIKVKGAQQPLKSGMKARNIRLKPEVGTGPEDHNIECKIDGFGQMILKPAVVKKIV”: the protein production result was “failed”.

With “VIWNQLDARERLERQNDLFRRAQKLANIGAWEYEVSSGEVFWTRQVREIHGLPQGYEPTAEEAIAAYHPEDQPVIQGMIERAVEEEVPFDRELRLGGEALPVGHEQKEGRWVRARGTPQIEAGEVTSVRGTFQDITERKAREHVLENEREALRSMYRITADREAGFEEKARRLIDLGREHLGLPYGFLTRITDETQEIVFASGTHPLLQPGESCPLSRSYCRNTIQEERSLVVQDAVAEGWAGDPAHQTFELGAYVGAQIIVEGELYGTFCFAAEEPREQAFAGRERVFVELMAQWASYELGQRRAKAQLKRQNARLDSFAGLVAHDLRNPLNVATGRLRLAREER”, the protein production entry is on record as “failed”.

Consider “VKAAQGLLLSVFHLYPKRKVEIILYNEKWAECFDEEKERLKLVFGPEIIAIHHIGSTSIPNMAAKPIIDMLIEVRSIEAVSQFDEQMKANGYTPKGENGIAGRRYFQKGGNKRTHHVHMYEQGNPAIERHLLFRDYLRAHPNIAKEYAVLKKQLAAQHPDSINQYIQGKDEWIKTAEENAKRWKKGRNNANGSIVCYNSENDENGGFTL”, for which the protein production entry was “failed”.

Take “VLAPNVYFNPDAPPRKKRPLNVCAPEVVFFPTEDGVNLRLTRYNGGGKGPVMLVHGLGVGSNIFSTDTISTNLLEYLYQHGYDVWLLDFRVSILLPASQQQWDGDQVARYDYPAAIRRIREATGAADVQCVVHCYGATTFFMSMLAGLEGVRSVVCSQIAADIVVPTATQVKTGLHLPTVLDKLGVSSLTAYTASDSNWFEKLYDTALKGYALAEAQGYCNNPVCHRITFMYASLYRHETLNETLHDNLHELFGVANMRTMEHLARMCREGRLVSFDGDDIYMPHFDRLQMPILFISGEQNECYLPESTERTFDKLAQRFGPERYSRLVVPGYGHIDCMFGKNAAADVYPAIVAHLDKT”: the protein production entry is listed as “failed”.

Regarding “VLESVRKEWLEIMDRELLEKARSLINANYISTTLSTVDRNYEVNIAVISVLEMIGDDTIICARFGADKTYANLKETGKGVFMVLLTDNDKSKDGIRVYVELSADLQEGEYFDRIKKRLDNTTYKNFPLKNCLVFKIVKILPVSLLRK”, the protein production entry is listed as “not failed”.

On to “VLLAITTGLVASLVNAKAYKGAEIFTNDAYLYGRYEIRMRVANASGILSTFFTYKNGSEVGNTFWEEIDIEVFGKNNATQWQSNIILGSSRPTIHTEEIHTADTSLADAYHTYVVEWTPDYVAWFLDGVEVRRITGTSTVTSLTNAQSLRFNIWSSESVPWVGAWDDSVLPVYQFVNYIDYKAYNATTKTFEGGWRDDFNNFDSSRWGKANWSFDMNRVDFAPENALVKDGILVLALTKENATGFNGTPPADEPASSSSSVAASSTPASSIAASSIAASVAASSVAVATSSVAASKASGGGSGGGAINGMWLLMLGSFVLLGWVHNQRQSHQQHQ”, for which the protein production entry is given as “failed”.

On to “VLTPRHIATLFTKLIPFKKNDKILDLCCGTGAFLIAGMNKLLSLKGIDAQNVKSNQLLGFEINPTMYICAISNMLFRGDGKSKIYNMDSINDDKVNKIISESAPTIGFINPPYSGKENKEDPTPKEITFLKKC”, for which the protein production entry is listed as “failed”.

Turning to “VMPLILLPAVDVVEGRAVRLVQGKAGSQTEYGSAVDAALGWQRDGAEWIHLVDLDAAFGRGSNHELLAEVVGKLDVQVELSGGIRDDESLAAALATGCARVNVGTAALENPQWCARVIGEHGDQVAVGLDVQIIDGEHRLRGRGWETDGGDLWDVLERLDSEGCSRFVVTDITKDGTLGGPNLDLLAGVADRTDAPVIASGGVSSLDDLRAIATLTHRGVEGAIVGKALYARRFTLPQALAAVRD”, the protein production result was “not failed”.

For “VNATQRKLLMQLVIGAAWVDGDLDQPERQYLQTLLERQKLDHDPDLLVLLETPIGLPQLEAWLVTFLQGTSTPTRLAALATIANLLMADGVVNRSEHSLLDEIHSLMAQIPASRDEEEYRQAAPGLVQGLSGLVRRALNGAKHLFQ”, the protein production entry is on record as “not failed”.

For the sequence “VPMNIKGLFEVAVKVKNLEKSSQFYTEILGFEAGLLDSARRWNFLWVSGRAGMVVLQEEKENWQQQHFSFRVEKSEIEPLKKALESKGVSVHGPVNLEWMQAVSLYFADPNGHALEFTAL”, the protein production entry is listed as “not failed”.

For “VRHTVKIDKDTLLQDYGFHISESLPLTVVAVTAGGSAHGKLFPGDQILQMNNEPAEDLSWERAVDILREAEDSLSITVVRCTS”, the protein production result was “not failed”.

As for “VTATQLAAKATTLYYLHKQAMTDEVSLLLEQALQLEPYNEAALSLIANDHFISFRFQEAIDTWVLLLDSNDPNLDRVTIIESINKAKKLM”, the protein production entry is recorded as “not failed”.

As to “VTPEQLQHHRFVLESVNGKPVTSDKNPPEISFGEKMMISGSMCNRFSGEGKLSNGELTAKGLAMTRMMCANPQLNELDNTISEMLKEGAQVDLTANQLTLATAKQTLTYKLADLMN”, the protein production result is reported as “not failed”.

“VTPQGLRIVLQDDYKQHMFSRGGAELTPFFEDLLLALAPLFEQVTNPLIISGHTDAIPFKKRFGRQSNWALSASRADVARKTLVEGGMPDDRVMQVTGMSDRALLNPDEPDSSENRRIELFILTTP”: the protein production result is on record as “failed”.

For “VTTVGFDVAARLGTLLTAMVTPFSGDGSLDTATAARLANHLVDQGCDGLVVSGTTGESPTTTDGEKIELLRAVLEAVGDRARVIAGAGTYDTAHSIRLAKACAAEGAHGLLVVTPYYSKPPQRGLQAHFTAVADATELPMLLYDIPGRSAVPIEPDTIRALASHPNIVGVKDAKADLHSGAQIMADTGLAYYSGDDALNLPWLAMGATGFISVIAHLAAGQLRELLSAFGSGDIATARKINIAVAPLCNAMSRLGGVTLSKAGLRLQGIDVGDPRLPQVAATPEQIDALAADMRAASVLR”, the protein production entry is recorded as “not failed”.

As to “VWICTKCVRCKSCGSTTPGKGWDAQWSHDFSLCHDCAKLFAKGNFCPLCDKCYDDDDYESKMMQCGKCDRWVHSKCENLSDEMYEILSNLPESVAYTCVNCTERHPAEWRLALEKELQISLKQVLTALLNSRTTSHLLRYRQAAKPPDLNPETEESIPSRSSPEGPDPPVLTEVSKQDDQQPLDLEGVKRKMDQGNYTSVLEFSDDIVKIIQAAINSDGGQPEIKKANSMVKSFFIRQMERVFPWFSVKKSRFWEPNKVSSNSGMLPNAVLPPSLDHNYAQWQEREENSHTEQ”, the protein production entry is given as “failed”.

Take “VWRQYASRALQELGAGKRAIHDVADLTRGSLRIAVTPTFTSYFIGPLMADFYARYPSITLQLQEMSQEKIEDMLCRDELDVGIAFAPVHSPELEAIPLLTESLALVVAQHHPLAVHEQVALSRLHDEKLVLLSAEFATREQIDHYCEKAGLHPQVVIEANSISAVLELIRRTSLSTLLPAAIATQHDGLKAISLAPPLLERTAVLLRRKNSWQTAAAKAFLHMALDKCAVVGGNESR”: the protein production result is “not failed”.

Take “VYLDFENHIKEIQNEIELALIRGDEDAKEILEKRLDKEVKSIYSNLTDFQKLQLARHPDRPYAMDYIDLILKDKYEVFGDRHYNDDKAIVCFVGKIDNVPVVVIGEEKGRGTKNKLLRNFGMPNPCGYRKALKMAKFAEKFNL”: the protein production result is “failed”.

“WLDLAPSTQVDTETSINVLSDIEFTLNGIYSTMQSSDAYSGRLVYYGDVTGDDMQAVSSTKRTGNYYRFNFTKDNGPSSHWSYLYSIIQNCNLILMNVDKLSIDEDETEYKNDLKGQALAIRGMALFDLTRIFGYPYLKDNGASLGVPIVKELSTIDSKPARNTVAECYTEIISDLKNSTELLSGDFNKGKVNRWAAMTLLSRVYLYKGEYNEALTMAENAIKGAEKEGYALWTNEEYPTAWGNDASASNPGEILFEIVNLTTDSPGKESMGYLNSYNGYDDMCITCSFYQLLKKDPKDVRLKILSFDKKYYAYVNKYQPQQGENITDANIPLIRLSEAYLNAAEAAVQTGDNAKAVKYLNSIVQRANPENSVEGKTLTLENVLDERRKELVAEGHRMYDVIRNGMTVKRIDVKDSDINKTKHNTAYMEYDWNFHKILLPIPKKEMDANPNMKQNPGYVD”: the protein production entry was “not failed”.

With “WQPATERLQVTYLGKVSTTGMQFLSGCTEKPVIELWKKHTLAREDVFPANALLEIRPFQVWLHHLDHKGEATVHMDTFQVARIAYCTADHNVSPNIFAWVYREINDDLSYQMDCHAVECESKLEAKKLAHAMMEAFRKTFHSMKSDGRIH”, the protein production entry is reported as “failed”.

“WRRLVEEAARRDPDDVRLLVHVASDVWNFVDEHCTLVADAYRHVERQLAWRRENRLRLMTTALLDGTTRIADLPDVATALDLPEQGRYAVVSVAVAHPAGHVGTQLLSVPPGMRALWHTGTDVEHGIVHLGEREPKDLVDRVTVPIGARVGISRAVDGLAAVGDARRLAETALRACPESGGTVLLDEHLPAALLVSAPALGTALVNRVLGPLLSLDPSDRDLLLDTVSAWLDNDGSAQRAASRLYCHRNTVLNRLRRFEQLTGRCLTRPADVVDTSLALTARRL”: the protein production entry is “failed”.

For the sequence “WRTIFNAEPECVMIVATDGTLLDINPAGVAAIEADSVGAVIGKRVYSLVVPECQQAFRQLNESVCQGKQGTLEFEIITCRGNRRWMATHAVPVRNEKDGNLVQLSI”, the protein production result is on record as “failed”.

Regarding “WSLQPLADMSAAEFRDWQVLLENRTGVVLNEQRRTFLQASLTARMRELGIGDYHSYYRQVTDGPRGAVEWATLLDRLTVQETRFFRHPPSFELLERYLGERLRREGMPRPWALWSVGCSSGEEPYSLAMCAAQVLRGQEREDFFGVTGTDISLHALQRARQANYPARKLEQLEAGLVERYCERQADGSFSVKTILTERVCCARLNVLDLAKAPWSGMDVIFCQNLLIYFRRWRRREILNRLAERLAPGGLLVIGVGEVVDWSHPELEPVADERVL”, the protein production entry was “failed”.

“WSYEHLHLTNRIKLLYAPTFRDNELGMAKLHLDIAEMKQALGNEYQLILKLHPSISNDLEKLDDDFVIYVDKETPIETLLPVVDILITDYSSIPFEFALLQKPMIFFTYDLTEYNNARGLSDGFLETIPGPHVFTTTELIEVIQNNTFDLEKVRLFAEKWNKYSDGFSSERFVSFLKEQLEK”: the protein production result is given as “failed”.

In the case of “YANEEKGLEIAQERKARDEGWGDSIATMEMILKNAQGESSTRLMRLKSLEVEGDGDKGLTIFDQPRDVTGTAFLNHSHTIGADDQWLYLPALKRVKRISSRNKSGPFMGSEFAYEDLSSFEIEKYRFNHLKDEKFNGQDVFVLEQIPTDKNSGYTKQVVWLDKAHYRPLKVEFYDRKGALLKTLTFANYKQYLDKYWRAHTMAMTNHQTGKSTELNTSDLRFQTGLEENDFNKNVLKRVK”, the protein production entry was “failed”.

“YETIIIHRHQRPDPDAIGSQVGLAELLRASFPEKNIYQVGGPVEGLEFLAEMDVITDDVYRGALVIVTDTANAPRISDARFSLGDQLIKIDHHPNDEPYGDLVWVNTNASSCSEIIVDFWQQHLAELTMTDNAARLLYAGIVGDTGRFLYPSTSAHTLAVAAQLRTFNFNAADLNRELDQMP”: the protein production result is reported as “not failed”.

The values are drawn from a protein production outcome set (Wang et al. 2014).
